Source: publication PMC3354962 (Advances in bioscience and biotechnology (Print), 2011)

What was measured:
proteases = test: Protease digestion, summary over the panel of proteases; assay type: in vitro ADME; conditions: of the 9 proteases tested; 1 µU enzyme, 1 hr, 37°C, SDS-PAGE
Trypsin = test: Protease digestion, SDS-PAGE: trypsin; assay type: in vitro ADME; conditions: 1 µU trypsin, 1 hr, 37°C, Coomassie, Figure 1

Griffithsin [GRFT] was tested, and the “Number of proteases the material was resistant to” value (proteases) was 8.

With PSC-RANTES the “Appearance of peptide bands on SDS-PAGE after digestion by trypsin” value (Trypsin) was “reduced intensity or density rather than disappearing”.
